# Results taken from US20220354880A1, “COMBINATION TREATMENT FOR CANCER” (AstraZeneca AB, priority 2019, published 2022).
# B1: MEDI4736: anti-PD-L1 antibody selective for a PD-L1 polypeptide; SEQ ID NOs: 3-10 (antibody, V domains shown)
# VH: EVQLVESGGGLVQPGGSLRLSCAASGFTFSRYWMSWVRQAPGKGLEWVANIKQDGSEKYYVDSVKGRFTISRDNAKNSLYLQMNSLRAEDTAVYYCAREGGWFGELAFDYWGQGTLVTVSS
# VL: EIVLTQSPGTLSLSPGERATLSCRASQRVSSSYLAWYQQKPGQAPRLLIYDASSRATGIPDRFSGSGSGTDFTLTISRLEPEDFAVYYCQQYGSLPWTFGQGTKVEIK
# modifications: MEDI4736 VH; Sequence 72 from PCT/US2010/058007; MEDI4736 VL; Sequence 77 from PCT/US2010/058007
# Columns and labels:
# MC-38 OVA = test: Low dose cisplatin anti-tumor activity in MC-38 OVA mice; assay type: in vivo; details: cisplatin 5 mg/kg (approximately 60 mg/m^2 human dose)
# Protocol: FIGS. 1A-1C relate to Example 1.
# A low dose treatment of cisplatin, 5 mg/kg (equivalent to approximately 60 mg/m^2 human dose) was tested for anti-tumor activity in MC-38 OVA mice.
# xenograft model = details: via a T-cell dependent mechanism; cited from earlier work
# human T-cell = details: in vitro; cited from earlier work
Molecule,anti-tumor activity (tumor growth inhibition) (MC-38 OVA),tumor growth in a xenograft model (xenograft model),PD-L1-mediated suppression of human T-cell activation (human T-cell)
N.N.[Cl][Pt][Cl] [cisplatin],produces most tumor growth inhibition,,
B1,,inhibit tumor growth in a xenograft model,can relieve PD-L1-mediated suppression of human T-cell activation in vitro
